Assay results from US20120093787A1.

Legend:
[1] = target: wild-type CXCR4 isoform B (X4b-WT), expressed on CXCR4-/- B4 SupT1 cells by lentiviral transduction (UniProt P61073); assay: flow cytometry on X4b WT B4 SupT1 transfectants, PE goat anti-mIgG detection
[2] = target: C34-CXCR4 isoform B fusion protein (C34-X4b), expressed on CXCR4-/- B4 SupT1 cells by lentiviral transduction (Pan troglodytes (Chimpanzee)) (UniProt P61072); assay: flow cytometry on C34-X4b B4 SupT1 transfectants, PE goat anti-mIgG detection
Sequence of UniProt P61072 (P61072 1-352, tags or fused parts left off): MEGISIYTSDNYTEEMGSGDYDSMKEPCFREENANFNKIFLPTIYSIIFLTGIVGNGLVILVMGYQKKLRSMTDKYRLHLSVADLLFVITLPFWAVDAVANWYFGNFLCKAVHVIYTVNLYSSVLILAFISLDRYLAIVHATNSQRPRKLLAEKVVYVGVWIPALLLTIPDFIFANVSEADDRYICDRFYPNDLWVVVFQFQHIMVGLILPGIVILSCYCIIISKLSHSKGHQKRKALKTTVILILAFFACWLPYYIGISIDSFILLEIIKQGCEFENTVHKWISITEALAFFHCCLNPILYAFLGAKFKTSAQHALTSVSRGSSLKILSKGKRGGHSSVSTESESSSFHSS

Sequence of UniProt P61073 (P61073 whole entry, the tested form may be a part, canonical isoform): as the sequence (P61072 1-352, tags or fused parts left off) above

Substance | MFI [1] [MFI] | positively stained cells (%) [1] [%] | MFI [2] [MFI] | positively stained cells (%) [2] [%]
anti-CXCR4 monoclonal antibody 12G5 (BD Biosciences) | 214 | 95.8 | 253 | 96.6
isotype control mIgG1 (antibody) | – | 0 | – | 0
isotype control mIgG2a (antibody) | – | 0.98 | – | 0.39
